Assay results published in the supplement of paper PMC9170038.

System: MS2 coat protein
Assay: apparent KD of MS2 coat protein; designed switch direction (-1 OFF switch, 1 ON switch): -1; higher = weaker reporter binding
Procedure, shortened: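 An oligonucleotide input, 200 uM small-molecule ligand, or no input was present during titration of SNAP-549-labelled MS2 coat protein, which was doubled from 0.7 or 1.5 nM to 3 µM. Designed RNA switches had been transcribed on Illumina chips by stalled E. coli RNA polymerase. Apparent KD per design is the median over clusters of curves fitted to normalised cluster fluorescence.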

[1] = Eterna round: R95, input ligand: microRNA oligo, concentration not stated
[2] = input ligand: microRNA oligo, concentration not stated
[3] = Eterna round: R95, input ligand: FMN 200 uM
[4] = Eterna round: R95, input ligand: none

Sequence | apparent KD of MS2 coat protein [1] | apparent KD of MS2 coat protein (input ligand: FMN 200 uM) | apparent KD of MS2 coat protein (input ligand: none) | further results
GCCAGAGCAGGAUAUUCAAUAAUCCACAUGAGGAUCACCCAUGUCUAGCGAAAGCUAGAGGGAGAAGGGCUCUGGC [Mat - Exclusion 5 - Eli mod - D90] (puzzle: Exclusion 5) | 57.2 nM | – | – | –
CAUUAUUAUCGAGGAUAUCCUAUUGAAAUUCUGGGAGAAGGCGGACUCAACAUGAGGAUCACCCAUGUGGGACGGAUGCUAGGG [Ex NG1 #28] (Eterna round: R96, puzzle: Exclusion NG 1) | – | – | – | apparent KD of MS2 coat protein [2]: 17.5 nM
CAGGAAAUAGAGGAUAUAGGAGUCGAUAGACUCCUAGAAGGCUAUACAUGAGGAUCACCCAUGUGUCCUACCUG [Fiskers Ex 6 - 69] (puzzle: Exclusion 6) | 14.6 nM | – | – | –
CUUUUAAAUGUGAGGAUAUACUGUUAUUAAAGUUAGUAGAAGGUACAUGAGGAUCACCCAUGUUAAUUACUCUA [JR_BME4_Sub048] (puzzle: Brourd's mod of Exclusion 4) | 12.5 nM | – | – | apparent KD of MS2 coat protein [3]: 15.1 nM; apparent KD of MS2 coat protein [4]: 12.6 nM
UUGUUGUAUGUAGGAUAUGCAUAUUAUUAUUAUGCAGAAGGACAUGAGGAUCACCCAUGUAUAUUAUUAUUAUAUGUUAUAUAU [Title] (Eterna round: R96, puzzle: Exclusion NG 1) | – | – | – | apparent KD of MS2 coat protein [2]: 20 nM
GAGGAACAUGAGGAUCACCCAUGUAAGGAUAUGCGAGACUAAAGCGCGCAGGCUAAGAGCAGAAGGUGCAAGGA [Excls1-IIa] (puzzle: Exclusion 1) | 28.7 nM | – | – | apparent KD of MS2 coat protein [3]: 36 nM; apparent KD of MS2 coat protein [4]: 32.8 nM
GGGUGCAGGCUGAGGUCCUACAUGAGGAUCACCCAUGUGGUCCGGUGACGUGAGUCACCGGACUUGGCUCGUCUUGU [salish99_S_TOV1_R5_010] (Eterna round: R97, puzzle: Sensor, turn-off variant 1) | – | 41.5 nM | 50.5 nM | –
UGAUGCUCAGGAUAUACAUCAGUGUUCAGGCCAAAAGGCGGACAUGAGGAUCACCCAUGUAGAAGGGAGCGUUC [Eternabot (L1) Solution 13] (Eterna round: R97, puzzle: Exclusion 2) | – | 900 nM | 380 nM | –
AGAGACCGAGGAUAUACAUGAGGAUCACCCAUGUUGUUAGGUGAUGGAUUAAUGAUUGGUAGAAGGCGGAGAGA [Seems to work] (Eterna round: R97, puzzle: Exclusion 3) | – | 340 nM | 227 nM | –
GAGCAGCGAGGAUAUACAGACGGGUCCAGUACGUGUCUUGGACUUGAGGAUCACCCAAGUAGAAGGCGUCUCAG [salish99_ex2_r4_608] (Eterna round: R97, puzzle: Exclusion 2) | – | 86.8 nM | 44.3 nM | –
AGUAGUAGUAUCCGAUCCUACAUGAGGAUCACCCAUGUAGGUAGACGUGCACGCGAUGCUCGUCAGACUACCAGAUG [salish99_TOv1_r3_039] (puzzle: Sensor v3, turn-off variant 1) | 11.4 nM | – | – | apparent KD of MS2 coat protein [3]: 12.1 nM; apparent KD of MS2 coat protein [4]: 13.4 nM
AACCUGAGGCUUUGCUUUAGGUGAACAUGAGGAUCACCCAUGUAGGAUAUGGUAGGCUUUGCUUACCAGAAGGACAUAUUAAUU [JL ENG3 1.12] (Eterna round: R96, puzzle: Exclusion NG 3) | – | – | – | apparent KD of MS2 coat protein [2]: 30.6 nM
UUGUUGUAUGUAGGAUAUGCAUAUUAUUAUUAUGCAGAAGGACAUGAGGAUCACCCAUGUAUGUUAUUAUUAUAUGUUAUAUAU [Title] (Eterna round: R96, puzzle: Exclusion NG 1) | – | – | – | apparent KD of MS2 coat protein [2]: 21.3 nM
UCCUGACAUGAGGAUCACCCAUGUUAGGAUAUAACAUUUGACGCGACAGUGUGGAGUGUUAGAAGGGAUGUGGG [-29.5, -26.8 kcal, A 27%] (Eterna round: R97, puzzle: Exclusion 1) | – | 20.5 nM | 17.4 nM | –
AGGUGUAGAGGAUAUCUCUUCUCUCACAUGAGGAUCACCCAUGUCCUAAAGUCCAAGGAGAGAGAAGGCUACACCA [Omei Ex5 D4] (Eterna round: R97, puzzle: Exclusion 5) | – | 107 nM | 110 nM | –
CCAGGCAGGCUAUUUGCUCACAUGAGGAUCACCCAUGUUGUAUCCCUUGAAUCUAGAUGGUUCAGGCUUAAUUAUUU [Eternabot (L2) Solution 28] (Eterna round: R97, puzzle: Sensor, turn-off variant 1) | – | 47.5 nM | 66 nM | –
UUUUUAUAACAAGGAUAUACUAAACAUGAGGAUCACCCAUGUAAUAUUAUGAGUGAGAGAGAUAAGUAGAAGGUGUAUUAUUUU [JMF solution 3] (Eterna round: R96, puzzle: Exclusion NG 2) | – | – | – | apparent KD of MS2 coat protein [2]: 99.6 nM
AAUAUACUAGGAUAUACAUGAGGAUCACCCAUGUCCGCAUAUUGGGAUCUUAGACCUUGUAGAAGGAGUGGACG [Eternabot (L2) Solution 15] (Eterna round: R97, puzzle: Exclusion 3) | – | 99.2 nM | 97.6 nM | –

Sequence | apparent KD of MS2 coat protein [1] | apparent KD of MS2 coat protein (input ligand: FMN 200 uM) | apparent KD of MS2 coat protein (input ligand: none) | further results
ACUUACUGAGGAUAUACAUAGAUUUACAUGAGGAUCACCCAUGUUCCUCUAUGUAUAUAUGUAGAAGGCAGAAGUG [Mat - Exclusion 5 - JL Mod - D36] (Eterna round: R97, puzzle: Exclusion 5) | – | 137 nM | 33.3 nM | –
UGUAGAGUGGUAGGAUAUCCGUCUGUUUCAGUCGGAGAAGGACCACAGUCACUGGGUCCAUGUUUCAUGGAGACCUGAUCUACU [pwkr exNG1 F6.10] (Eterna round: R96, puzzle: Exclusion NG 1) | – | 185 nM | 195 nM | apparent KD of MS2 coat protein [2]: 49 nM
CUGAGCUGAGGAUAUACAUGAGGAUCACCCAUGUAAAGCAGCUUGCGUACAAGCAGAUGUAGAAGGCAGUUCGG [Mod of JL 17 - Jieux - Exclusion 3] (Eterna round: R97, puzzle: Exclusion 3) | – | 24.1 nM | 14.7 nM | –
UAGAAGGUAGGAUAUACGAAUAAAUAGGGUAGUAAGAAUACACAUGAGGAUCACCCAUGUAGAAGGACCAAGAU [Mat - Exclusion 2 - Mod of my Tesla design - D32] (puzzle: Exclusion 2) | 19.5 nM | – | – | apparent KD of MS2 coat protein [3]: 43.1 nM; apparent KD of MS2 coat protein [4]: 20.9 nM
CAUUACUACAAGCUAAGGGACAUGAGGAUCACCCAUGUUCGUCUUAUUGAUCUAGGUACGCUGACGUACCUAGAUCU [JL-sv1-2.23 Brourd mod] (puzzle: Sensor v3, turn-off variant 1) | 20.1 nM | – | – | apparent KD of MS2 coat protein [3]: 15.8 nM; apparent KD of MS2 coat protein [4]: 14.6 nM
AAAAUGUGAGGAUAUCACGGAGCCUCGCAUGACGAGACUCCUGAGAAGGCACAUGAGGAUCACCCAUGUCCUGU [EX4 A.10] (Eterna round: R97, puzzle: Exclusion 4) | – | 382 nM | 57 nM | –
UCGAGGUCAGGAUAUACAUGAGGAUCACCCAUGUGGAGAUAAGGUAGGAAAAGAGUAGGUAGAAGGGACGAGAG [JR_Exclu3_Sub048] (puzzle: Exclusion 3) | 40.6 nM | – | – | apparent KD of MS2 coat protein [3]: 61.4 nM; apparent KD of MS2 coat protein [4]: 57.6 nM
UAGAUGGGAGGAUAUACAUAGAUACAGAUUCGUGUAGUGCUACAUGAGGAUCACCCAUGUAGAAGGCCCGUCUU [JL-ex2-2.21 Mayanne mod] (puzzle: Exclusion 2) | 15.2 nM | – | – | –
CCUCUACAUGAGGAUCACCCAUGUGAGGAUAUCCUGCGAGGAUCAAAAGAUCCUCGUGGGAGAAGGCAUAUGAA [Omei Ex1 A1] (Eterna round: R97, puzzle: Exclusion 1) | – | 34.3 nM | 22.9 nM | –
GGUCCACAUGAGGAUCACCCAUGUUAGGAUAUCUCGCCCGAGUCGUUAUGGGCCAGGCAGAGAAGGAAUGUGAA [Cebeisve] (puzzle: Exclusion 1) | 18 nM | – | – | –
GUCUCACAUGAGGAUCACCCAUGUGAGGAUAUGGUUUCGCUGGCCGUAGCCAGUGGAACCAGAAGGCGCGUGAU [Mat - Exclusion 1 - JL Mod - D18] (Eterna round: R97, puzzle: Exclusion 1) | – | 71.1 nM | 65 nM | –
GUGUUUGGUGUAGGAUAUGUUUGUGGGUCGCGGGCAGAAGGACAUGAGGAUCACCCAUGUUUCGGGCUUGGCUUGGGCGGGCGC [-21, -19 kcal and 14% A] (Eterna round: R96, puzzle: Exclusion NG 1) | – | 16.7 nM | 17.6 nM | apparent KD of MS2 coat protein [2]: 12.4 nM
AAGAACGUGCAAGGAUAUCUCCACCAAACCGGCAGAGAAGGUGCACAUGAGGAUCACCCAUGUGACCUAAAGCUCUUAUGAGCC [Raledigeen] (Eterna round: R96, puzzle: Exclusion NG 1) | – | 30.6 nM | 17.3 nM | apparent KD of MS2 coat protein [2]: 13.1 nM
UAUAUAUAGUAAGGAUAUGUAUAUAUUUUAUCAACAGAAGGUACUGACAUGAGGAUCACCCAUGUUUUAGUGUGGGCAUGUAGA [JMF's solution 71] (Eterna round: R96, puzzle: Exclusion NG 1) | – | – | – | apparent KD of MS2 coat protein [2]: 54.2 nM
GGUGGACAUGAGGAUCACCCAUGUGAGGAUAUCGGCUGUCUACUCGCUGACGGCUGCUCGAGAAGGCGCAUUGU [Exclusion 1 V89] (puzzle: Exclusion 1) | 38.6 nM | – | – | –
GGGAAGAACCAACAAGUAGACAUGAGGAUCACCCAUGUAGACUUCAUGUAGGAAAGGAAAGGAAGAGCUCGUCUUAU [AK-miRNA-r3-12] (Eterna round: R97, puzzle: Sensor, turn-off variant 1) | – | 21.6 nM | 28.5 nM | –
GAGAAGGUAGGAUAUACGAAUAAAAAGGGUAGAAUAAUAACACAUGAGGAUCACCCAUGUAGAAGGACCAAGAG [Mat - Exclusion 2 - Mod of my Tesla design - D20] (puzzle: Exclusion 2) | 25.1 nM | – | – | apparent KD of MS2 coat protein [3]: 45 nM; apparent KD of MS2 coat protein [4]: 26.5 nM
